Measurements: PMC2787366

Assays:
Assay in all cases: fluorescence polarisation
[1] = target: G9aK185me3 peptide (fluorescence polarization)
[2] = target: H3 peptide dimethylated on lysine 9 (fluorescence polarization)
[3] = target: H3K9me3 peptide (fluorescence polarization)

B1: hCDYL1b chromodomain (1–78 aa) (domain or fragment)
chain: MASEELYEVERIVDKRKNKKGKTEYLVRWKGYDSEDDTWEPEQHLVNCEEYIHDFNRRHTEKQKESTLTRTNRTSPNN
Kd [1]: 8 µM
fold weaker than with the H3K9me3 peptide [2]: 1.5 fold
Kd [3]: 2 µM
